Measured values taken from the DeepSol protein solubility set.

test: soluble on expression in E. coli; label from the status in PepcDB or PDB records

**Q.** For “MGSDKIHHHHHHMRIILYTGKGGVGKTSISAATALQSAKQGLKTLVMSTDPAHSLGDSFGIKLSSEPLEIRENLWAQEINTIYEMEKGWGKLQKYITLLFTSKAADDITTEELTMFPGMEDLISLLRVLDYYKQNTYDVIIIDCAPTGETLAMLSFPDMLGWWMEKLFPIKRKVLKVVRPVAQPLLGVPLPTDDIMDELTNTLEQLGEMRDILSNRDVTSIRIVVNPEKMVIKEAQRSFTYLNLYDYNVDAIMINRVIPNTVIDPYFQAWKDTQKKYKTLIQNSFDPLPIYEAPMFEQEVVGLPMLERVGDALFKEDYCPTEVKFNGRTQYVKKDGDEYIFVLSIPFSNKSELALNQKGDELIIRAGSVKRNITLPKTLTHLSIQGAKFEDDVLNIRFGGVVHA”, which “soluble on expression in E. coli” value is on record?
**A.** Its value is “not soluble”.

**Q.** For “MGSDKIHHHHHHMRKFKIPNMGALVAFEAAARHESFTHTAKELFLTESAVSRQIATLEASLGVRLFARVKQRVVLTRAGKLYGTQVRRALEALDRDTLSIIAHGSGGGYLELAVLPTFASHWLIPRIKSFYDRTPDVRVNMGSRTDLFSFEDTHFEAAIHYGKPTWPGTSSDYLFGEEVVPICSPALLDGPVERVEDLLAYPLLHSTTRPGAWAQWFETHGVEDIRTMQGVRYELHTMLISAAAAGLGIALVPKFFVEEQLQQLGLVVPCDAATVGDSAYYLVYPTELSHSKPLESFRAWLLEQASAYAAPGRDGEEDDLDAEDDEDVE”, which “soluble on expression in E. coli” value is on record?
**A.** The value was “not soluble”.

**Q.** With “MGSDKIHHHHHHMRKFNLTALSVMLALGLTACQPPEAEKAAPAASGEAQTANEGGSVSIAVNDNACEPMELTVPSGQVVFNIKNNSGRKLEWEILKGVMVVDERENIAPGLSDKMTVTLLPGEYEMTCGLLTNPRGKLVVTDSGFKDTANEADLEKLSQPLADYKAYVQGEVKELVAKTKTFTEAVKAGDIEKAKSLFADTRVHYERIEPIAELFSELDPVIDAREDDFKDGAKDAGFTGFHRIEYALWVEKDVSGVKEIAAKLMTDVEALQKEIDALAFPPGKVVGGASELIEEVAGSKISGEEDRYSHTDLSDFQANVDGSKKIVDLFRPLIEAKNKALLEKTDTNFKQVNEILAKYRTKDGFETYDKLGEADRKALQASINALAEDLAQLRGILGLK” as the sequence, how does the “soluble on expression in E. coli” value read?
**A.** The value was “not soluble”.

**Q.** With “MGSDKIHHHHHHMRKMAVQKLPEKDFFAPLKAWKFLVRKPVTIEVPNKIRREASERYRGFHVNDWGKCIGCGTCAKICPTDAITMVEVPDLTQEDGKLPQRPVIDYGRCSFCALCVDICTTGSLKMTREYIHISEDPEDFIFMPTDKGLNAKKGLYEFGKAPLGWVRDENSELLDLERIEMPVEPPEVRIKSFIEIVKGYSREQAMQEAARCVECGVCTYTCPEHMDIPQYIKSVYEDNLEEGLRWLYRTNPLSMVCGRVCTHRCETACSVGVRGEPVAIQWLKRYIVDSIPLERYGEILDIKPERKGKSVGIIGSGPAGLAAAYFLATMGYDVTIYESESKPGGVMRYGIPKYRLPDEALDKDIAFIEALGVKILLNTRVVQDVSFEDVRKRHDVVFLATGFGLGRSTGVPGTDHPDVKQALPLLKMIRDYLRGDGPKPPVPERLVVIGGGNVAMDISRSMARLQFMEYGRVNVQVLSLEGCFEDMPADMEEIEEALEEGIVINPGWGPMEVVIENDRIKGVKFKKCVSVFDGEGRFNPQFDEKEQIFVEADMVVEAIGQAPDYSYLPEEIRSKLEFFRGRIKTNEYNQTSVEWLFAGGDIVHGPDIIHGIADGYAAAKGIDMYLRKEK” as the sequence, how does the “soluble on expression in E. coli” value read?
**A.** Its value is “not soluble”.

**Q.** Which “soluble on expression in E. coli” value does the source give for “MGSDKIHHHHHHMRLAAATGFSFVGLRVIAVTPNERVYDLSPGSPLLAATQQALKETALYVLDTEFLQVNADTTREAWLPALEAAGALGAKTFTIAAGDDNIAPLTDTIGAMVDDARDFGVTPALEPISYRSVHSIPQAAAIARDSGGKVVADTLHMARFGATPEELTDVTDVLGVLQLCDSPLQRPADLDGLVTESRSLRLAPGEGEQNLLTFVNALDSNVPLSVETPNDGEVASRGDAGWINHLYNTTQALLEKIEEAV” here?
**A.** Its value is “not soluble”.

**Q.** Which “soluble on expression in E. coli” value does the source give for “MGSDKIHHHHHHMRLHSPSMSELHAFVAAARLGSFTRAADTLCVTQGAISRAIARLEEHFGQPLIQRNAHRLTLTGAGQQLLDAVAGPLAAIEHASAALRAGDRSHHLTLSAVPTLASVWLVPRLPDFHRRHPDIRLDFVPYRRDEDFSGAAPDAALLAGEPGKWPGLQVDYVVGREMVPVCHPDRARQRHAAGRWREPAELMDEPLLYHTTAPANWANWLQAAGVPNAAPKLSSGFDQVSILVQAVRADMGIAVLQRCLLHDELAAGRVVAPFDLPIRLQRGYFLCSPRERRDHHALRCFREWLLETAAQDSGT” here?
**A.** Its value is “not soluble”.

**Q.** For “MGSDKIHHHHHHMRLLDLYLTLRLALSTAVHTLAGRVKGRSYVPHPRTMLFIEPTSHCNLECSFCTYRLDRHPRLTLDMERFEDYVAQARAMGFADMVLTPINGDVFMDRTILDKLRLLDRLKDGPGIILYTNLIGASAEQLGEILALARLKMFQVSIYGHDFETFRRITGRGQVQFRRLLANLETIADLVAQGVVPQALSICVRTERHYRLEDEASGELHVLLRRLISLGIPVSVQSCLDDWGGLVAETDLDGLDMPLIRGRLIPKNGACIEPFYNVQILADGRVNACACRSVGEDLIIGDLRQDDLKTILSARNPAYTGLIERQQKGDFPQTCRGCSFYRSIYDRRIRNASPLGHMSLEQFHTFLSRE”, which “soluble on expression in E. coli” value is on record?
**A.** Its value is “not soluble”.

**Q.** For “MGSDKIHHHHHHMRNIPDQEEYFALLIEFDFEDFNDLPQNAGTSQNYVQGQLNPLLESALHQFIDFSLVAPPSAFKFRKRELLELIYYSGYTAIAKLNMNKSLSERVQTLISYHLSTELTAEFIAAQLFMSSSTLRRKLKSEGNSIQDIRNRVRLGHGLHLIQTTNNSIGNIAFECGYQSQSRFTEQFKNLFGITPRELRKTKMLT”, which “soluble on expression in E. coli” value is on record?
**A.** Its value is “not soluble”.

**Q.** With “MGSDKIHHHHHHMRNIVKRFGSLVANDHINFEVKRGEIHGLLGENGAGKTTLMNILYGIYQPDEGEIIFEGKKVRFKSPKDAISAGIGMVHQHFMLVPRMNVLQNIVLGYRTPSDPLINHRWVEERIERLSEKYGIDVALYEVIMNLSVGEEQRVEILKALFRDVKLLILDEPTAVLTPQEVDSLFYALKSMTKSGLTIIFITHKLKEALKVTDRITVLRRGRKVGTVITSETNERELTRMMVGRDIVLDITKPPSTPGREVLRVEDLWVRDERGNYAVKGVSFSIREGEIFGIAGVSGNGQKELEEAIAGLRKVERGRIILDGKDITAKGVAEREDIAYIPEDRIGVGLAPSLSVLENLMLKDFKKYKKRFSLNFEEMEKRAMSLVEEFSVKTPSLHSPAGTLSGGNIQRLILARELSRNPRLIIASQPTRGLDVAGIDYVRRRLIEAAMRGSAVLLISEDLDEIFQLSDRIGVMYEGEIRGIVDRKNANYEKIGYLMAGGLEVAA” as the sequence, how does the “soluble on expression in E. coli” value read?
**A.** Its value is “not soluble”.

**Q.** Which “soluble on expression in E. coli” value does the source give for “MGSDKIHHHHHHMRNMQEKGVSEKEILEELKKYRSLDLKYEDGNIFGSMCSNVLPITRKIVDIFLETNLGDPGLFKGTKLLEEKAVALLGSLLNNKDAYGHIVSGGTEANLMALRCIKNIWREKRRKGLSKNEHPKIIVPITAHFSFEKGREMMDLEYIYAPIKEDYTIDEKFVKDAVEDYDVDGIIGIAGTTELGTIDNIEELSKIAKENNIYIHVDAAFGGLVIPFLDDKYKKKGVNYKFDFSLGVDSITIDPHKMGHCPIPSGGILFKDIGYKRYLDVDAPYLTETRQATILGTRVGFGGACTYAVLRYLGREGQRKIVNECMENTLYLYKKLKENNFKPVIEPILNIVAIEDEDYKEVCKKLRDRGIYVSVCNCVKALRIVVMPHIKREHIDNFIEILNSIKRD” here?
**A.** Its value is “not soluble”.

**Q.** Which “soluble on expression in E. coli” value does the source give for “MGSDKIHHHHHHMRNVKIDEVDRLDRDVVALGNDYAQGFILPPHQHRRAQLLYGATGLMYVTTQDGEWVVPPQHAVWIPPETVHAVRFAGVTTRSLYIEPDCVAAFIKHRRCEVISVSPLLRQLLLEAVDLPPLYDSPRDRALIQLMLLELAAMPVREFDIPLPQHPALLALCQAFLLNPSIHDPAARWARALFMSPSTFRRHFLKQLGLSFSAWRQRACVVSALAWLIAGKPVNEVALSLGYDNASSFATMFRRVTGQPPSFYHPA” here?
**A.** The value was “not soluble”.

**Q.** Which “soluble on expression in E. coli” value does the source give for “MGSDKIHHHHHHMRPDCTDFRQLFLDDVPMMDMRAPVEFAKGAFPGVVNLPLMNDQERQKVGTCYKQQGQAAAIALGHQLVSGATKQARLEAWAAFAKAHPDGYLYCFRGGLRSQIVQGWLRDEAGIQYPRVKGGYKAMRTFLLETTQQAVEQCDFVLVGGLTGTGKTDVLHQLDNVLDLEGHANHRGSSFGKRATAQPAQIDFENQLAIDVLKKRARGIGQFVLEDEGRIVGSCTVPLELYQGMQHYPLVWLEDSFTNRVERILRDYVVNLSAEFKAVHGEEDGPRLFAERMLQSMANIYKRLGGERHQRLSEMLREALQEQQRSGAVDLHRGWIEGLLNEYYDPMYAYQRAAKAERIEFAGDAVEVREYLKARALRQPRK” here?
**A.** Its value is “not soluble”.

**Q.** For “MGSDKIHHHHHHMRRKDATWILTAQCPSRLGTVDVVTRFLKECRCYITEQQSFDDRHGERFFIRTAFQPEETDFDADTFQAAFAARAAEFDMVFELTAPEARMPVVIMVSKADHCLNDLLYRYRTGQLPVTIRAVISNHPDLEPLVAWHDLPYYHLPITPETKAEQEAEVWRVIESTGAELVILARYMQVLSSELCEKLTGKAINIHHSLLPGFKGAKPYHQAFEKGVKLVGATAHYINDDLDEGPIITQGVEPVSHADDPEDLVAKGRDIECLTLARAVSLHLERRVFLHARRTVVFAR”, which “soluble on expression in E. coli” value is on record?
**A.** Its value is “not soluble”.

**Q.** Which “soluble on expression in E. coli” value does the source give for “MGSDKIHHHHHHMRRLPPLNALQIFATVARHRSFTRAADALCVTQGAISRQIQSLEAHYGFALFMRHARGLTLTVEGEQLLPVVVESFARIEDISLKLTRQRTDLALKVPTCVMRWVLPRIMRFQREHPDLHVQMTTTWRHDVDFQSEPFDAAIVYGMSPGPDVAAVPLFDERLTPVCAPDLLEGRPLARVEDLACHTLLHPTRDHRDWRRWLDYAGAAGVDPDRGPSFDSLDLATSAATQGFGVALGDLTLSEEDFAARRLAMPLDIVQRTGARYYFVYPESVAQQQKIQRFSAWLDANRD” here?
**A.** The value was “not soluble”.

**Q.** With “MGSDKIHHHHHHMRVGIIGGGFGLAVQAPIINTHPKMNVSAISTMIRHQVPKNLSTADDSPVHYTDWTKMLDLEELDLVFVSSLPIYHFEMVKYALNKGIHVVCEKPFTMNSVESEELLRLSSDTNTKVFIDFEWRYHPARQKVKELISEVGDILHFEYHISASQYQKLQTNKRGWMGEKQKFGGMLGALGTHMVDCLRWLIQDEIITINGFIHTHVPEGPEELRDSDDAFFIHGKIEGNCTFSIQLISGIHHGFGSNLKVFGSLGTINLIDDKTLFFGKASESLEEIKIETYTQTIPPLSSEAKAYYPAFYPFLDKVYENIIFNKSDKDLPTIVDGHENQIIIDNVLSN” as the sequence, how does the “soluble on expression in E. coli” value read?
**A.** Its value is “not soluble”.

**Q.** With “MGSDKIHHHHHHMRVRSVTEEDYLKIIQELVLYQDYAQLSDIAKSLQVKRQSARDEINHLIDLGMVKKIDRGKYVLTDQGDIEANIFLRKHRTAEVLLSQCVGIEWDAVDREAMGIEHGMTEEIIHRVIERFNAKRCPHGNPIPSPEGYVEKIDDVRITDLNETGDVIISRIIYETDEILNYLYANQILPGAKVKIIRTGFPLQIEKDGRLLSLDPSIAKAIRVSSIK” as the sequence, how does the “soluble on expression in E. coli” value read?
**A.** The value was “not soluble”.

**Q.** Which “soluble on expression in E. coli” value does the source give for “MGSDKIHHHHHHMRWNRMNPFGSYKKVVSARSTLKEVLKKAQDGGIVSTAFIYGLENNLLDGVIVADNAGEFKAVPKVATTPEEVLEAAGTKYTVCPNISVLKSAVREYGCEKIGVVGTPCQVRAVRKLMKYPVGFRHVPDKIALIIGIFCMENFPYYGLKLIVEEHCGVKMEDVVKMDIGKGKFWVYTRWGETKAIKLKETHPYEQIACHVCTDYTAELADISTGSVGSPDGWSTVFIRTAKGEEIFNKMVEDGYLEVKPIEEVKPGLGLVEKLALQKKEKNMKEIEHRKELGLPIPY” here?
**A.** Its value is “not soluble”.
